Data as given in FireProtDB (doi:10.1006/jmbi.1999.3146).
Several values for one entry are separate records, joined by “and”; a condition that tells them apart may be missing. Equal values may be shown once.

Conditions: Myxococcus xanthus, Thermal, DSC, reversible: yes, whole UniProt chain shown
[1] = pH 3, glycine-HCl 20 mM, CaCl2 3 mM
[2] = pH 6, Sodium cacodylate 20 mM, CaCl2 3 mM

B1: Development-specific protein S wild type, P02966 (protein)
chain: MANITVFYNEDFQGKQVDLPPGNYTRAQLAALGIENNTISSVKVPPGVKAILYQNDGFAGDQIEVVANAEELGPLNNNVSSIRVISVPVQPRARFFYKEQFDGKEVDLPPGQYTQAELERYGIDNNTISSVKPQGLAVVLFKNDNFSGDTLPVNSDAPTLGAMNNNTSSIRIS
Q: With B1 as the protein, how does the “unfolding enthalpy (calorimetric)” value (pH 1.5, glycine-HCl 20 mM, CaCl2 3 mM) read?
A: 51.9 kcal/mol and 44.5 kcal/mol

Q: And the “unfolding enthalpy (calorimetric)” value (pH 1.5, glycine-HCl 20 mM)?
A: 48.8 kcal/mol and 42.8 kcal/mol

Q: What about the “unfolding enthalpy (calorimetric)” value (pH 1.75, glycine-HCl 20 mM, CaCl2 3 mM) of the same protein?
A: 50.9 kcal/mol and 46.9 kcal/mol

Q: And the “unfolding enthalpy (calorimetric)” value (pH 2, glycine-HCl 20 mM, CaCl2 3 mM)?
A: 58.6 kcal/mol and 49.2 kcal/mol and 50.2 kcal/mol

Q: And the Tm (pH 2, glycine-HCl 20 mM)?
A: 47.9 °C

Q: And the “unfolding enthalpy (calorimetric)” value (pH 2, glycine-HCl 20 mM)?
A: 55.2 kcal/mol

Q: What about the “unfolding enthalpy (calorimetric)” value (pH 2.25, glycine-HCl 20 mM, CaCl2 3 mM) of the same protein?
A: 66 kcal/mol and 55.2 kcal/mol and 54.5 kcal/mol

Q: What about the Tm (pH 2.25, glycine-HCl 20 mM) of the same protein?
A: 38.3 °C

Q: And the “unfolding enthalpy (calorimetric)” value (pH 2.25, glycine-HCl 20 mM)?
A: 65.7 kcal/mol

Q: What about the “unfolding enthalpy (calorimetric)” value (pH 2.5, glycine-HCl 20 mM, CaCl2 3 mM) of the same protein?
A: 77 kcal/mol and 59 kcal/mol and 60.5 kcal/mol

Q: And the Tm [1]?
A: 55 °C and 57.3 °C and 59 °C

Q: What about the “unfolding enthalpy (calorimetric)” value [1] of the same protein?
A: 94.2 kcal/mol and 77.2 kcal/mol and 62.1 kcal/mol

Q: And the Tm (pH 3, glycine-HCl 20 mM)?
A: 53.7 °C and 54.6 °C

Q: What about the “unfolding enthalpy (calorimetric)” value (pH 3, glycine-HCl 20 mM) of the same protein?
A: 89.2 kcal/mol and 69.5 kcal/mol

Q: And the Tm [2]?
A: 70.1 °C

Q: What about the “unfolding enthalpy (calorimetric)” value [2] of the same protein?
A: 79.1 kcal/mol

Q: And the Tm (pH 6, Sodium cacodylate 20 mM)?
A: 68.9 °C

Q: What about the “unfolding enthalpy (calorimetric)” value (pH 6, Sodium cacodylate 20 mM) of the same protein?
A: 67.9 kcal/mol

Q: And the “unfolding enthalpy (calorimetric)” value (pH 9, glycine-NaOH 20 mM)?
A: 83.7 kcal/mol and 66.4 kcal/mol and 65 kcal/mol
